Results taken from the supplement of paper PMC7125110.
± gives the standard error. Variants at the floor of the assay were thinned out.

B1: glmS ribozyme (parent)
chain: AUAAAAGCGCCAGAACUACAGAAAUGUAGUUGACGAGGAGGAGGUUUAUCGAAUUUUCGGCGGAUGCCUCCAAA

How the values were obtained:
Settings in all cases: with glucosamine-6-phosphate
glucosamine-6-phosphate [1] = variants of: B1; assay: self-cleavage kobs at 640 uM GlcN6P; higher = faster cleavage; RNA array
Procedure, shortened: (§1)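 kcat and KM were obtained from weighted Michaelis–Menten fits across concentrations of kobs values. Those came from one- or two-exponential decay fits to per-tile medians normalised to baseline and to non-cleaving reference variants. The variants were barcoded ribozymes transcribed in situ by E. coli RNA polymerase on sequenced MiSeq chips and tracked through a hybridised Cy3 probe at 37 °C, with 40 μM to 10 mM glucosamine-6-phosphate in HEPES/KCl/Mg(OAc)2 buffer flowed in.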

glucosamine-6-phosphate [2] = variants of: B1; assay: self-cleavage kobs at 10000 uM GlcN6P; higher = faster cleavage; RNA array
Procedure, shortened: as §1

glucosamine-6-phosphate [3] = variants of: B1; assay: self-cleavage kobs at 2500 uM GlcN6P; higher = faster cleavage; RNA array
Procedure, shortened: as §1

| Variant | self-cleavage kobs at 640 uM GlcN6P (glucosamine-6-phosphate [1]) | self-cleavage kobs at 10000 uM GlcN6P (glucosamine-6-phosphate [2]) | self-cleavage kobs at 2500 uM GlcN6P (glucosamine-6-phosphate [3]) |
| --- | --- | --- | --- |
| G9U A14U C16A G32U A36G | < 1e-05 s⁻¹ | – | – |
| C8G A42U | < 1e-05 s⁻¹ | < 1e-05 s⁻¹ | – |
| C8G C10U G38A U65G C68G | 4.45e-05 ± 1.9e-05 s⁻¹ | – | – |
| G7C G9C G44A | < 1e-05 s⁻¹ | < 1e-05 s⁻¹ | – |
| C8G U30C A64C | < 1e-05 s⁻¹ | < 1e-05 s⁻¹ | < 1e-05 s⁻¹ |
| A6G A12U U56A C71U | 8.01e-05 ± 2.1e-05 s⁻¹ | – | 9.57e-05 ± 2.8e-05 s⁻¹ |
| A6G G41A C50A G62U | < 1e-05 s⁻¹ | – | – |
| G9A U45A C50G C68U | < 1e-05 s⁻¹ | < 1e-05 s⁻¹ | – |
| G7C A42U A53U C67G | < 1e-05 s⁻¹ | – | – |
| G9C A42U U47A U57G | < 1e-05 s⁻¹ | – | – |
| C8G G35U G37A A48U C67U | < 1e-05 s⁻¹ | – | < 1e-05 s⁻¹ |
| A6G A52U G60U | < 1e-05 s⁻¹ | – | < 1e-05 s⁻¹ |
| C8A C50G C61A U69G | 7.27e-05 ± 2.2e-05 s⁻¹ | – | 6.55e-05 ± 2.7e-05 s⁻¹ |
| G9U A36C G43U | < 1e-05 s⁻¹ | – | < 1e-05 s⁻¹ |
| G9U C34G C58U | < 1e-05 s⁻¹ | – | < 1e-05 s⁻¹ |
| G7U G35C A39U U65C | < 1e-05 s⁻¹ | – | – |
| C8G C50G C61U A64U | 0.00078 ± 0.00019 s⁻¹ | – | 0.00023 ± 6.3e-05 s⁻¹ |
| C8G U55G | < 1e-05 s⁻¹ | – | < 1e-05 s⁻¹ |
| A6G C8U U31G C71G | < 1e-05 s⁻¹ | – | – |
| C8U U30A C71U | < 1e-05 s⁻¹ | – | – |
| A6C U55G U65G C67U | < 1e-05 s⁻¹ | – | – |
| C8U A42U U49G A52G U57G | < 1e-05 s⁻¹ | – | < 1e-05 s⁻¹ |
| G7U C11A C50G C70U | 0.000451 ± 0.00011 s⁻¹ | 0.00016 ± 3.1e-05 s⁻¹ | 0.000157 ± 3.1e-05 s⁻¹ |

| Variant | self-cleavage kobs at 640 uM GlcN6P (glucosamine-6-phosphate [1]) | self-cleavage kobs at 10000 uM GlcN6P (glucosamine-6-phosphate [2]) | self-cleavage kobs at 2500 uM GlcN6P (glucosamine-6-phosphate [3]) |
| --- | --- | --- | --- |
| A6G A12C U56A | 5.6e-05 ± 1.6e-05 s⁻¹ | – | 0.000102 ± 2.1e-05 s⁻¹ |
| C8G G13C A52U A53U C71U | < 1e-05 s⁻¹ | < 1e-05 s⁻¹ | – |
| C8U G44A U45C | < 1e-05 s⁻¹ | – | < 1e-05 s⁻¹ |
| A6C G29U A33U | < 1e-05 s⁻¹ | – | – |
| A6G A15C C34A A36U | < 1e-05 s⁻¹ | – | < 1e-05 s⁻¹ |
| C8U A12G G66U | < 1e-05 s⁻¹ | – | – |
| C8U U55G G60U | < 1e-05 s⁻¹ | – | – |
| A6U C11A A33G U47C U49A G51U A53U G59U | < 1e-05 s⁻¹ | – | < 1e-05 s⁻¹ |
| C8G G9U A52U | < 1e-05 s⁻¹ | – | < 1e-05 s⁻¹ |
| G9C C16A G63C C71G | < 1e-05 s⁻¹ | – | – |
| A6G U30G G38U U55G | < 1e-05 s⁻¹ | – | < 1e-05 s⁻¹ |
| A6G G13C G32A G66U | < 1e-05 s⁻¹ | – | < 1e-05 s⁻¹ |
| G9U A12C A33G | < 1e-05 s⁻¹ | – | < 1e-05 s⁻¹ |
| C8U A48G A64G | < 1e-05 s⁻¹ | – | – |
| C8A G40A A42U G62C | < 1e-05 s⁻¹ | – | – |
| A6C G41A U55C U65G | < 1e-05 s⁻¹ | – | – |
| A6U A14G G60C | < 1e-05 s⁻¹ | – | – |
| G7U G43U U45A C58A | < 1e-05 s⁻¹ | – | < 1e-05 s⁻¹ |
| G9A G13A A48G | < 1e-05 s⁻¹ | – | < 1e-05 s⁻¹ |
| C8U A12U A14U G44A C61U | < 1e-05 s⁻¹ | – | < 1e-05 s⁻¹ |
| G7A G44U C67G | < 1e-05 s⁻¹ | – | – |
| C8A C10A C34A | < 1e-05 s⁻¹ | – | – |
| A6G G40U C67A | < 1e-05 s⁻¹ | – | – |

| Variant | self-cleavage kobs at 640 uM GlcN6P (glucosamine-6-phosphate [1]) | self-cleavage kobs at 10000 uM GlcN6P (glucosamine-6-phosphate [2]) | self-cleavage kobs at 2500 uM GlcN6P (glucosamine-6-phosphate [3]) |
| --- | --- | --- | --- |
| C8G C11A A39C | < 1e-05 s⁻¹ | – | – |
| G7U U30C U45A C71G | < 1e-05 s⁻¹ | – | – |
| G9U A42G U45A C58G | < 1e-05 s⁻¹ | – | < 1e-05 s⁻¹ |
| G7U C34U A39C U69C | < 1e-05 s⁻¹ | – | – |
| C8A C34A G59U A64G | < 1e-05 s⁻¹ | – | < 1e-05 s⁻¹ |
| G7U A12C U49C | < 1e-05 s⁻¹ | – | – |
| G9U U30G C68U | < 1e-05 s⁻¹ | – | – |
| C8A C11U G37C G62A | < 1e-05 s⁻¹ | – | < 1e-05 s⁻¹ |
| C8G A12C C71A | < 1e-05 s⁻¹ | – | < 1e-05 s⁻¹ |
| G7C A64U G66U | < 1e-05 s⁻¹ | – | – |
| G7U G37A A39C | < 1e-05 s⁻¹ | – | < 1e-05 s⁻¹ |
| G7A A39U A53C A64C | < 1e-05 s⁻¹ | – | – |
| C8G A36G A42U C67A | < 1e-05 s⁻¹ | – | < 1e-05 s⁻¹ |
| A6U A12G A14U | < 1e-05 s⁻¹ | – | – |
| G7A C8U U31C A52C | < 1e-05 s⁻¹ | – | < 1e-05 s⁻¹ |
| C8A C10A U30A C61G | < 1e-05 s⁻¹ | – | < 1e-05 s⁻¹ |
| G7A C10U C16U U65C | < 1e-05 s⁻¹ | – | – |
| G9A G13C A64G C70U | < 1e-05 s⁻¹ | – | – |
| G7U A48U C50A C67G | 0.000229 ± 8.3e-05 s⁻¹ | – | – |
| G7A G37A G66U | < 1e-05 s⁻¹ | – | < 1e-05 s⁻¹ |
| G7A A39C U56G C68G | < 1e-05 s⁻¹ | – | < 1e-05 s⁻¹ |
